Source: the supplement of paper PMC9112550, “Optimization of the antimicrobial peptide Bac7 by deep mutational scanning” (BMC Biology, 2022)

Test system: Escherichia coli TOP10
Test: shrunken log2 fold change of peptide-encoding DNA abundance (4.5 h post-induction vs induction); higher = less antimicrobial activity (less host growth inhibition)
Settings: time post-induction: 4.5 h; library: site-saturation at positions 5, 18, 19, 20
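Note: peptides expressed intracellularly from a pBAD plasmid library in pooled LB shake-flask culture, induced with 0.3% L-arabinose, DNA abundance read by NGS, three biological replicates, DESeq2 with apeglm shrinkage.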

| Sequence | shrunken log2 fold change |
| --- | --- |
| RRIRWRPPRLPRPRPRPWYAPRP | -0.746 |
| RRIRQRPPRLPRPRPRPEAYPRP | 0.0335 |
| RRIRDRPPRLPRPRPRPVWNPRP | 0.00745 |
| RRIRYRPPRLPRPRPRPLICPRP | -0.255 |
| RRIRMRPPRLPRPRPRPITEPRP | -0.012 |
| RRIRERPPRLPRPRPRPMPIPRP | -0.18 |
| RRIRWRPPRLPRPRPRPREQPRP | 0.349 |
| RRIRNRPPRLPRPRPRPDAKPRP | 0.162 |
| RRIRKRPPRLPRPRPRPRSAPRP | 0.884 |
| RRIRSRPPRLPRPRPRPGSPPRP | 0.106 |
| RRIRTRPPRLPRPRPRPMPWPRP | 0.253 |
| RRIRFRPPRLPRPRPRPLCFPRP | -0.211 |
| RRIRRRPPRLPRPRPRPMGLPRP | -0.0617 |
| RRIRGRPPRLPRPRPRPHRIPRP | 0.00463 |
| RRIRVRPPRLPRPRPRPIDRPRP | -0.0529 |
| RRIRSRPPRLPRPRPRPDWYPRP | -0.3 |
| RRIRGRPPRLPRPRPRPFKIPRP | 0.0381 |
| RRIRRRPPRLPRPRPRPNVQPRP | 0.0253 |
| RRIRRRPPRLPRPRPRPHLKPRP | -0.0915 |
| RRIRDRPPRLPRPRPRPHMPPRP | 0.0902 |
| RRIRSRPPRLPRPRPRPNRCPRP | 0.173 |
| RRIRCRPPRLPRPRPRPSCIPRP | -0.253 |
| RRIRKRPPRLPRPRPRPYTMPRP | -0.53 |
| RRIRQRPPRLPRPRPRPVFQPRP | 0.0308 |
| RRIRVRPPRLPRPRPRPIKQPRP | 0.0119 |

| Sequence | shrunken log2 fold change |
| --- | --- |
| RRIRVRPPRLPRPRPRPGYIPRP | -0.608 |
| RRIRIRPPRLPRPRPRPGWGPRP | 0.308 |
| RRIRWRPPRLPRPRPRPKTWPRP | 0.325 |
| RRIRRRPPRLPRPRPRPDMEPRP | -0.0393 |
| RRIRWRPPRLPRPRPRPTDFPRP | -0.149 |
| RRIRGRPPRLPRPRPRPTPKPRP | 1.2 |
| RRIRFRPPRLPRPRPRPRAHPRP | 0.00718 |
| RRIRSRPPRLPRPRPRPIKMPRP | -0.47 |
| RRIRCRPPRLPRPRPRPPVWPRP | 0.129 |
| RRIRWRPPRLPRPRPRPFVLPRP | 0.231 |
| RRIRTRPPRLPRPRPRPFMNPRP | -0.787 |
| RRIRKRPPRLPRPRPRPMNEPRP | 0.22 |
| RRIRDRPPRLPRPRPRPHGSPRP | 0.208 |
| RRIRWRPPRLPRPRPRPPPWPRP | 0.616 |
| RRIRIRPPRLPRPRPRPGYAPRP | -0.192 |
| RRIRDRPPRLPRPRPRPNWEPRP | 0.0184 |
| RRIRERPPRLPRPRPRPNEYPRP | -0.726 |
| RRIRGRPPRLPRPRPRPLREPRP | 1.85 |
| RRIRFRPPRLPRPRPRPNSPPRP | -0.462 |
| RRIRNRPPRLPRPRPRPWLLPRP | -0.436 |
| RRIRNRPPRLPRPRPRPPRNPRP | 0.196 |
| RRIRKRPPRLPRPRPRPYHCPRP | -0.0129 |
| RRIRARPPRLPRPRPRPWNAPRP | -0.124 |
| RRIRYRPPRLPRPRPRPNYYPRP | -1.16 |
| RRIRVRPPRLPRPRPRPHCLPRP | -1.63 |

| Sequence | shrunken log2 fold change |
| --- | --- |
| RRIRMRPPRLPRPRPRPKRVPRP | 0.0291 |
| RRIRTRPPRLPRPRPRPKMFPRP | -0.0043 |
| RRIRRRPPRLPRPRPRPNQFPRP | 0.119 |
| RRIRCRPPRLPRPRPRPYLCPRP | -0.455 |
| RRIRVRPPRLPRPRPRPLLGPRP | -0.131 |
| RRIRTRPPRLPRPRPRPKYWPRP | -0.254 |
| RRIRGRPPRLPRPRPRPSRKPRP | 0.293 |
| RRIRRRPPRLPRPRPRPHWGPRP | 0.291 |
| RRIRFRPPRLPRPRPRPSGAPRP | 0.103 |
| RRIRHRPPRLPRPRPRPNNFPRP | -0.0738 |
| RRIRGRPPRLPRPRPRPHRRPRP | 0.205 |
| RRIRIRPPRLPRPRPRPSNMPRP | -0.353 |
| RRIRSRPPRLPRPRPRPIVLPRP | -0.639 |
| RRIRKRPPRLPRPRPRPRTRPRP | 0.618 |
| RRIRLRPPRLPRPRPRPMSYPRP | -0.25 |
| RRIRCRPPRLPRPRPRPAVTPRP | 0.0305 |
| RRIRYRPPRLPRPRPRPHAVPRP | -0.4 |
| RRIRLRPPRLPRPRPRPTIMPRP | -0.334 |
| RRIRPRPPRLPRPRPRPRTEPRP | 0.306 |
| RRIRYRPPRLPRPRPRPTHEPRP | 0.0198 |
| RRIRFRPPRLPRPRPRPEFSPRP | 0.0686 |
| RRIRHRPPRLPRPRPRPIEDPRP | 0.0058 |
| RRIRFRPPRLPRPRPRPTFRPRP | -0.0216 |
| RRIRQRPPRLPRPRPRPVPKPRP | -0.00476 |
| RRIRHRPPRLPRPRPRPDAMPRP | -0.00187 |

| Sequence | shrunken log2 fold change |
| --- | --- |
| RRIRGRPPRLPRPRPRPRYIPRP | -0.222 |
| RRIRDRPPRLPRPRPRPDKIPRP | 0.231 |
| RRIRYRPPRLPRPRPRPSSMPRP | -0.999 |
| RRIRRRPPRLPRPRPRPAPNPRP | 0.976 |
| RRIRNRPPRLPRPRPRPDDHPRP | -0.0202 |
| RRIRTRPPRLPRPRPRPMIFPRP | -0.738 |
| RRIRNRPPRLPRPRPRPCTCPRP | -0.0075 |
| RRIRRRPPRLPRPRPRPMMTPRP | 0.975 |
| RRIRERPPRLPRPRPRPPDPPRP | 0.106 |
| RRIRHRPPRLPRPRPRPLPEPRP | 0.126 |
| RRIRPRPPRLPRPRPRPDNRPRP | 0.0191 |
| RRIRNRPPRLPRPRPRPRHSPRP | -0.424 |
| RRIRWRPPRLPRPRPRPARAPRP | 0.563 |
| RRIRVRPPRLPRPRPRPCCAPRP | 0.151 |
| RRIRIRPPRLPRPRPRPLGNPRP | -0.19 |
| RRIRPRPPRLPRPRPRPCEFPRP | -0.0795 |
| RRIRNRPPRLPRPRPRPEELPRP | 0.678 |
| RRIRQRPPRLPRPRPRPNSAPRP | -0.173 |
| RRIRMRPPRLPRPRPRPMYCPRP | -0.0254 |
| RRIRIRPPRLPRPRPRPIEYPRP | -0.0602 |
| RRIRRRPPRLPRPRPRPHCYPRP | 0.0243 |
| RRIRTRPPRLPRPRPRPAYWPRP | -0.017 |
| RRIRERPPRLPRPRPRPNVQPRP | -0.403 |
| RRIRNRPPRLPRPRPRPVWSPRP | 0.0637 |
| RRIRHRPPRLPRPRPRPNQYPRP | -0.663 |

| Sequence | shrunken log2 fold change |
| --- | --- |
| RRIRDRPPRLPRPRPRPVWEPRP | 0.0337 |
| RRIRIRPPRLPRPRPRPLKYPRP | -0.0551 |
| RRIRFRPPRLPRPRPRPFHDPRP | -0.149 |
| RRIRWRPPRLPRPRPRPCKPPRP | 0.119 |
| RRIRYRPPRLPRPRPRPGCTPRP | -0.0794 |
| RRIRERPPRLPRPRPRPHKPPRP | -0.519 |
| RRIRARPPRLPRPRPRPVTKPRP | 0.128 |
| RRIRHRPPRLPRPRPRPNASPRP | 0.0449 |
| RRIRDRPPRLPRPRPRPHWSPRP | -0.132 |
| RRIRSRPPRLPRPRPRPFKKPRP | 0.0549 |
| RRIRERPPRLPRPRPRPINWPRP | -0.169 |
| RRIRLRPPRLPRPRPRPEKVPRP | -0.0389 |
| RRIRLRPPRLPRPRPRPANSPRP | -0.202 |
| RRIRSRPPRLPRPRPRPAYNPRP | -0.00937 |
| RRIRKRPPRLPRPRPRPKCTPRP | 0.0297 |
| RRIRDRPPRLPRPRPRPVIDPRP | 0.35 |
| RRIRARPPRLPRPRPRPMQMPRP | 0.626 |
| RRIRSRPPRLPRPRPRPTEHPRP | -0.0545 |
| RRIRKRPPRLPRPRPRPSDEPRP | 0.258 |
| RRIRYRPPRLPRPRPRPPVCPRP | 0.065 |
| RRIRMRPPRLPRPRPRPPCRPRP | 0.584 |
| RRIRARPPRLPRPRPRPRVLPRP | 0.189 |
| RRIRYRPPRLPRPRPRPQKWPRP | -0.16 |
| RRIRGRPPRLPRPRPRPNIVPRP | 0.364 |
| RRIRGRPPRLPRPRPRPDNFPRP | 0.169 |

| Sequence | shrunken log2 fold change |
| --- | --- |
| RRIRRRPPRLPRPRPRPMHSPRP | 0.36 |
| RRIRCRPPRLPRPRPRPERPPRP | 0.777 |
| RRIRWRPPRLPRPRPRPVSTPRP | 0.138 |
| RRIRDRPPRLPRPRPRPMHSPRP | 0.117 |
| RRIRERPPRLPRPRPRPKRIPRP | 0.103 |
| RRIRWRPPRLPRPRPRPEEPPRP | 0.805 |
| RRIRQRPPRLPRPRPRPIKRPRP | -0.354 |
| RRIRIRPPRLPRPRPRPSNFPRP | -0.335 |
| RRIRPRPPRLPRPRPRPKCNPRP | -0.125 |
| RRIRQRPPRLPRPRPRPDKTPRP | -0.00926 |
| RRIRERPPRLPRPRPRPGYVPRP | -0.227 |
| RRIRQRPPRLPRPRPRPRAIPRP | 0.109 |
| RRIRSRPPRLPRPRPRPENAPRP | -0.231 |
| RRIRSRPPRLPRPRPRPKSQPRP | 0.164 |
| RRIRERPPRLPRPRPRPWYSPRP | -0.798 |
| RRIRYRPPRLPRPRPRPAEFPRP | -0.266 |
| RRIRSRPPRLPRPRPRPSKDPRP | -0.61 |
| RRIRKRPPRLPRPRPRPFFHPRP | 0.203 |
| RRIRQRPPRLPRPRPRPQKLPRP | -0.0725 |
| RRIRFRPPRLPRPRPRPWLHPRP | 0.0608 |
| RRIRTRPPRLPRPRPRPQHIPRP | -0.554 |
| RRIRCRPPRLPRPRPRPENCPRP | 0.0153 |
| RRIRERPPRLPRPRPRPCQKPRP | -0.0135 |
| RRIRARPPRLPRPRPRPIENPRP | 0.203 |
| RRIRKRPPRLPRPRPRPQLAPRP | 0.898 |
